Ka data for one molecule are collected here from patent US20130280250A1 (published 2013).

The assay concerns the target T1, CD20 (human, UniProt P11836 1-297).
T1 construct: whole, on cells; also called CD20 on live cells; CD20 on Daudi and Raji cells
T1 sequence (looked up): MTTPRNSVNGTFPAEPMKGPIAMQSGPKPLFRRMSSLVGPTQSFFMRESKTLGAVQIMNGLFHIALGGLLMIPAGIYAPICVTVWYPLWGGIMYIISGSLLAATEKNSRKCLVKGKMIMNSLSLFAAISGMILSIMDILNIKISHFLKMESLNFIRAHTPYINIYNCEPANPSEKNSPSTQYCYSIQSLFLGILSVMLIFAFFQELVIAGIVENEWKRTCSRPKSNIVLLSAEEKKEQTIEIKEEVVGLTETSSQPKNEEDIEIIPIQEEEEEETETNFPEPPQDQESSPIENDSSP
Briefly: Scatchard analysis, radio-iodinated sample on Raji cells; apparent association constant.

B1: veltuzumab (hA20) (antibody, V domains shown)
VH: QVQLQQSGAEVKKPGSSVKVSCKASGYTFTSYNMHWVKQAPGQGLEWIGAIYPGMGDTSYNQKFKGKATLTADESTNTAYMELSSLRSEDTAFYYCARSTYYGGDWYFDVWGQGTTVTVSS
VL: DIQLTQSPSSLSASVGDRVTMTCRASSSVSYIHWFQQKPGKAPKPWIYATSNLASGVPVRFSGSGSGTDYTFTISSLQPEDIATYYCQQWTSNPPTFGGGTKLEIK
For B1, the Ka came to 1e+08 M⁻¹.
